Assay results from the supplement of paper PMC9112550, “Optimization of the antimicrobial peptide Bac7 by deep mutational scanning” (BMC Biology, 2022).

System: Escherichia coli TOP10
Test: shrunken log2 fold change of peptide-encoding DNA abundance (4.5 h post-induction vs induction); higher = less antimicrobial activity (less host growth inhibition)
Details: time post-induction: 4.5 h; library: site-saturation at positions 5, 18, 19, 20
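Also: peptides expressed intracellularly from a pBAD plasmid library in pooled LB shake-flask culture, induced with 0.3% L-arabinose, DNA abundance read by NGS, three biological replicates, DESeq2 with apeglm shrinkage.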

| Sequence | shrunken log2 fold change |
| --- | --- |
| RRIRQRPPRLPRPRPRPKWGPRP | -0.0154 |
| RRIRDRPPRLPRPRPRPPWYPRP | -0.0741 |
| RRIRKRPPRLPRPRPRPNEMPRP | 0.0671 |
| RRIRYRPPRLPRPRPRPCWEPRP | -0.288 |
| RRIRVRPPRLPRPRPRPKMIPRP | -0.162 |
| RRIRMRPPRLPRPRPRPCHNPRP | -0.355 |
| RRIRIRPPRLPRPRPRPKERPRP | -0.00236 |
| RRIRTRPPRLPRPRPRPRHKPRP | 0.123 |
| RRIRHRPPRLPRPRPRPIIQPRP | -0.348 |
| RRIRQRPPRLPRPRPRPMIGPRP | 0.0241 |
| RRIRFRPPRLPRPRPRPTCFPRP | -0.157 |
| RRIRNRPPRLPRPRPRPQPNPRP | -0.047 |
| RRIRHRPPRLPRPRPRPGSYPRP | -0.287 |
| RRIRHRPPRLPRPRPRPPPMPRP | 0.557 |
| RRIRERPPRLPRPRPRPIGIPRP | -0.123 |
| RRIRLRPPRLPRPRPRPFKKPRP | 0.0344 |
| RRIRQRPPRLPRPRPRPNWTPRP | -0.00963 |
| RRIRYRPPRLPRPRPRPRGSPRP | -0.285 |
| RRIRARPPRLPRPRPRPKKWPRP | 0.0405 |
| RRIRHRPPRLPRPRPRPYNAPRP | -0.00175 |
| RRIRVRPPRLPRPRPRPCHVPRP | -0.859 |
| RRIRFRPPRLPRPRPRPSEHPRP | -0.323 |
| RRIRCRPPRLPRPRPRPHLDPRP | -0.0622 |
| RRIRARPPRLPRPRPRPGIDPRP | 0.652 |
| RRIRDRPPRLPRPRPRPMNDPRP | -0.126 |

| Sequence | shrunken log2 fold change |
| --- | --- |
| RRIRHRPPRLPRPRPRPPFPPRP | 0.0224 |
| RRIRDRPPRLPRPRPRPVRFPRP | 0.189 |
| RRIRFRPPRLPRPRPRPFHPPRP | 0.039 |
| RRIRRRPPRLPRPRPRPFTQPRP | -0.223 |
| RRIRDRPPRLPRPRPRPCRKPRP | -0.00804 |
| RRIRSRPPRLPRPRPRPIYVPRP | -0.612 |
| RRIRHRPPRLPRPRPRPLTAPRP | -0.0931 |
| RRIRKRPPRLPRPRPRPDLKPRP | 0.131 |
| RRIRNRPPRLPRPRPRPKHHPRP | -0.487 |
| RRIRLRPPRLPRPRPRPYCGPRP | -0.0687 |
| RRIRFRPPRLPRPRPRPGIRPRP | -0.136 |
| RRIRRRPPRLPRPRPRPTIVPRP | -0.111 |
| RRIRLRPPRLPRPRPRPHGWPRP | 0.0568 |
| RRIRQRPPRLPRPRPRPDGTPRP | 0.103 |
| RRIRQRPPRLPRPRPRPHNEPRP | -0.161 |
| RRIRSRPPRLPRPRPRPQSDPRP | -0.0499 |
| RRIRWRPPRLPRPRPRPEDRPRP | 0.213 |
| RRIRQRPPRLPRPRPRPAVHPRP | -0.0227 |
| RRIRTRPPRLPRPRPRPMWNPRP | -0.418 |
| RRIRMRPPRLPRPRPRPKRSPRP | 2.25 |
| RRIRFRPPRLPRPRPRPHNKPRP | 0.0525 |
| RRIRRRPPRLPRPRPRPGGAPRP | 0.492 |
| RRIRARPPRLPRPRPRPSYVPRP | -0.232 |
| RRIRCRPPRLPRPRPRPKCCPRP | 0.0554 |
| RRIRWRPPRLPRPRPRPRWIPRP | 0.211 |

| Sequence | shrunken log2 fold change |
| --- | --- |
| RRIRRRPPRLPRPRPRPGNFPRP | 0.155 |
| RRIRYRPPRLPRPRPRPMNDPRP | -0.188 |
| RRIRKRPPRLPRPRPRPSAAPRP | 0.624 |
| RRIRPRPPRLPRPRPRPETKPRP | 0.00908 |
| RRIRIRPPRLPRPRPRPRYTPRP | -0.156 |
| RRIRSRPPRLPRPRPRPYKKPRP | -0.0605 |
| RRIRNRPPRLPRPRPRPHLDPRP | 0.118 |
| RRIRNRPPRLPRPRPRPTRLPRP | 0.2 |
| RRIRRRPPRLPRPRPRPDNDPRP | 0.104 |
| RRIRSRPPRLPRPRPRPVMDPRP | -0.496 |
| RRIRDRPPRLPRPRPRPYYSPRP | 0.0804 |
| RRIRTRPPRLPRPRPRPCWEPRP | 0.203 |
| RRIRVRPPRLPRPRPRPIQNPRP | -0.121 |
| RRIRCRPPRLPRPRPRPAKMPRP | 0.104 |
| RRIRPRPPRLPRPRPRPQMIPRP | -0.594 |
| RRIRWRPPRLPRPRPRPTYHPRP | -0.0794 |
| RRIRERPPRLPRPRPRPGAEPRP | 0.372 |
| RRIRTRPPRLPRPRPRPEAKPRP | -0.0276 |
| RRIRFRPPRLPRPRPRPYSMPRP | -0.417 |
| RRIRGRPPRLPRPRPRPWDNPRP | -0.0364 |
| RRIRGRPPRLPRPRPRPDAPPRP | 1.9 |
| RRIRKRPPRLPRPRPRPEYPPRP | 0.0134 |
| RRIRWRPPRLPRPRPRPNMAPRP | 0.345 |
| RRIRGRPPRLPRPRPRPQYKPRP | -0.136 |
| RRIRMRPPRLPRPRPRPVMMPRP | 0.147 |

| Sequence | shrunken log2 fold change |
| --- | --- |
| RRIRCRPPRLPRPRPRPTWVPRP | 0.342 |
| RRIRGRPPRLPRPRPRPIMRPRP | 0.818 |
| RRIRQRPPRLPRPRPRPNPFPRP | -0.26 |
| RRIRARPPRLPRPRPRPKRMPRP | 0.258 |
| RRIRSRPPRLPRPRPRPEMIPRP | 0.0158 |
| RRIRNRPPRLPRPRPRPVLLPRP | -0.0738 |
| RRIRSRPPRLPRPRPRPPQMPRP | 0.154 |
| RRIRWRPPRLPRPRPRPQMWPRP | 0.369 |
| RRIRARPPRLPRPRPRPWTLPRP | -0.256 |
| RRIRERPPRLPRPRPRPYEKPRP | -0.0219 |
| RRIRNRPPRLPRPRPRPHKQPRP | -0.359 |
| RRIRGRPPRLPRPRPRPTNWPRP | 0.485 |
| RRIRGRPPRLPRPRPRPEQFPRP | 0.846 |
| RRIRMRPPRLPRPRPRPAYKPRP | 0.0601 |
| RRIRQRPPRLPRPRPRPKEMPRP | 0.229 |
| RRIRVRPPRLPRPRPRPWKFPRP | -0.00968 |
| RRIRVRPPRLPRPRPRPFRYPRP | -0.0399 |
| RRIRRRPPRLPRPRPRPRLDPRP | 0.347 |
| RRIRGRPPRLPRPRPRPSFIPRP | -0.166 |
| RRIRWRPPRLPRPRPRPGRSPRP | 0.0808 |
| RRIRPRPPRLPRPRPRPPDNPRP | 0.246 |
| RRIRERPPRLPRPRPRPIFLPRP | -0.288 |
| RRIRWRPPRLPRPRPRPATTPRP | 0.859 |
| RRIRVRPPRLPRPRPRPNMGPRP | -0.11 |
| RRIRPRPPRLPRPRPRPKNWPRP | 0.261 |

| Sequence | shrunken log2 fold change |
| --- | --- |
| RRIRKRPPRLPRPRPRPQTEPRP | -0.0229 |
| RRIRVRPPRLPRPRPRPGMGPRP | 0.0724 |
| RRIRNRPPRLPRPRPRPHTNPRP | 0.0886 |
| RRIRGRPPRLPRPRPRPWWLPRP | 0.0131 |
| RRIRNRPPRLPRPRPRPIVVPRP | 0.0207 |
| RRIRCRPPRLPRPRPRPDRHPRP | 0.0552 |
| RRIRKRPPRLPRPRPRPSTYPRP | -0.0529 |
| RRIRVRPPRLPRPRPRPLRIPRP | 0.0616 |
| RRIRQRPPRLPRPRPRPGCKPRP | -0.0467 |
| RRIRHRPPRLPRPRPRPWCPPRP | -0.402 |
| RRIRHRPPRLPRPRPRPNHPPRP | -0.254 |
| RRIRKRPPRLPRPRPRPQPHPRP | 0.554 |
| RRIRRRPPRLPRPRPRPICSPRP | 0.0991 |
| RRIRARPPRLPRPRPRPYKNPRP | -0.524 |
| RRIRMRPPRLPRPRPRPSEAPRP | 1.95 |
| RRIRERPPRLPRPRPRPCQTPRP | -0.397 |
| RRIRDRPPRLPRPRPRPVWIPRP | -0.125 |
| RRIRNRPPRLPRPRPRPQSDPRP | -0.174 |
| RRIRGRPPRLPRPRPRPHKNPRP | 0.535 |
| RRIRVRPPRLPRPRPRPEYFPRP | -0.285 |
| RRIRWRPPRLPRPRPRPSTYPRP | -0.0575 |
| RRIRNRPPRLPRPRPRPTMPPRP | 0.0915 |
| RRIRLRPPRLPRPRPRPKHAPRP | 0.0823 |
| RRIRDRPPRLPRPRPRPDKPPRP | 0.00451 |
| RRIRSRPPRLPRPRPRPFVTPRP | -0.0434 |

| Sequence | shrunken log2 fold change |
| --- | --- |
| RRIRTRPPRLPRPRPRPVGFPRP | -0.225 |
| RRIRGRPPRLPRPRPRPLSKPRP | 0.425 |
| RRIRRRPPRLPRPRPRPCDRPRP | 0.0985 |
| RRIRCRPPRLPRPRPRPYPPPRP | -0.631 |
| RRIRNRPPRLPRPRPRPNKSPRP | -0.338 |
| RRIRQRPPRLPRPRPRPRKRPRP | -0.104 |
| RRIRRRPPRLPRPRPRPSNYPRP | -0.169 |
| RRIRDRPPRLPRPRPRPYFHPRP | -0.678 |
| RRIRARPPRLPRPRPRPHFGPRP | 0.0349 |
| RRIRYRPPRLPRPRPRPWVFPRP | -0.0309 |
| RRIRVRPPRLPRPRPRPSGIPRP | -0.931 |
| RRIRTRPPRLPRPRPRPGKWPRP | -0.192 |
| RRIRFRPPRLPRPRPRPAGLPRP | -0.0796 |
| RRIRMRPPRLPRPRPRPTHEPRP | 0.439 |
| RRIRERPPRLPRPRPRPFADPRP | -0.192 |
| RRIRWRPPRLPRPRPRPQHIPRP | -0.736 |
| RRIRLRPPRLPRPRPRPTPIPRP | 0.3 |
| RRIRRRPPRLPRPRPRPNDPPRP | 0.0958 |
| RRIRSRPPRLPRPRPRPNPSPRP | -0.00593 |
| RRIRVRPPRLPRPRPRPVQPPRP | 0.114 |
| RRIRARPPRLPRPRPRPHMGPRP | 0.0766 |
| RRIRCRPPRLPRPRPRPMKQPRP | -0.436 |
| RRIRWRPPRLPRPRPRPYRYPRP | 0.0299 |
| RRIRARPPRLPRPRPRPAACPRP | 0.754 |
| RRIRCRPPRLPRPRPRPSIDPRP | -0.505 |
